Test results as given in paper PMC6123711, “Conformational signatures in β-arrestin2 reveal natural biased agonism at a G-protein-coupled receptor” (Communications Biology, 2018).
Marks after values point to notes of the source that are not given here.

How the values were obtained:
Type in all cases: cell-based, human
Galr2 [1] = assay: Quantification of biased agonism between two pathways (operational model); settings: for ΔΔLog(τ/KA) (bias factor), Gαq-dependent-pErk1/2/β-arrestin1: Gαq-dependent-pErk1/2 vs β-arrestin1; for ΔΔLog(τ/KA) (bias factor), SRE-Luc/clathrin:β-arrestin2: SRE-Luc vs clathrin:β-arrestin2; for ΔΔLog(τ/KA) (bias factor), SRE-Luc/β-arrestin1: SRE-Luc vs β-arrestin1; for ΔΔLog(τ/KA) (bias factor), SRE-Luc/β-arrestin2: SRE-Luc vs β-arrestin2; for ΔΔLog(τ/KA) (bias factor), Total inositol phosphate/clathrin:β-arrestin2: total inositol phosphate vs clathrin:β-arrestin2; for ΔΔLog(τ/KA) (bias factor), Total inositol phosphate/β-arrestin1: total inositol phosphate vs β-arrestin1; for ΔΔLog(τ/KA) (bias factor), Total inositol phosphate/β-arrestin2: total inositol phosphate vs β-arrestin2; for ΔΔLog(τ/KA) (bias factor), β-Arrestin-dependent-pErk1/2/β-arrestin2: β-arrestin-dependent-pErk1/2 vs β-arrestin2
Experimental: To determine whether differential signaling at Galr2 (Figs. 2 and 5) may be translated into biased agonism, we used the operational model of agonism (Eq. 2) to calculate the logarithm of the transduction coefficient (log(τ/KA)) for each agonist at each pathway (Table 1)[4]. We used Galanin as a reference ligand during all experiments. […] We also calculated bias factors for G-protein-dependent pErk1/2 and β-arrestins.
(§1) Quantification of bias between each pathway was performed using Galanin as a reference ligand. All incubations for the different signaling assays were performed in serum-free medium to prevent peptide degradation.
To calculate biased factors and compare agonist profiles, the dose–response data were fit to the following form of the operational model of agonism:[42]2 Y=Basal+Em-basalτ/KA^n[A]^n/[A]^nτ/KA^n+1+[A]/KA^n where Em is the maximal possible response of the system, Basal is the basal level of response, KA represents the equilibrium dissociation constant of the agonist (A), and τ is an index of the signaling efficacy of the agonist that is defined as RT/KE. RT is the total number of receptors, KE is the coupling efficiency of each agonist-occupied receptor, and n is the slope of the transducer function that links occupancy to response. One assumption of the analysis is that the transduction machinery used for a given cellular pathway are the same for all agonists, such that the Em and transducer slope (n) are shared between agonists. The data for all compounds for each pathway were fit globally, to determine values of KA and τ. Biased agonism was quantified as previously described. […] The relative bias can then be calculated for each agonist at the two different signaling pathways by subtracting the Δlog(τ/KA) of one pathway from the other to give a ΔΔlog(τ/KA) value, which is a measure of bias. […] All transduction ratios (log(τ/KA)) parameters were estimated as logarithms. All results were expressed as mean ± s.e.m. values. We performed a Brown–Forsythe test (Graph Pad Prism 7.0) to assure ourselves of equal variances between the compared parameters.

Galr2 [2] = assay: SRE-Luc gene reporter assay; settings: for Log(τ/KA), SRE-Luc: HEK293 cells, Galr2, 6 h ligand treatment, operational model (Eq. 2)
From the text: (§2) Galr2 is primarily coupled to the Gαq-protein which activates the phospholipase C/protein kinase C pathway for inositol phosphate production. We measured G-protein activation in HEK293 cells transiently expressing Galr2, using the serum response element-luciferase (SRE-Luc) gene reporter assay[10],[37] and for a more specific monitoring of Gαq-protein activity we also measured total inositol phosphate production. […] However, some differences were observed between SRE-Luc activity and total inositol phosphate production in the rank order of potency of the tested ligands. […] Phosphorylation of extracellular signal-regulated protein kinases 1 and 2 (pErk1/2) is either G-protein or β-arrestin dependent. To distinguish Gαq-protein- and β-arrestin1/2-dependent Erk1/2 signaling, we examined ligand-stimulated Erk1/2 phosphorylation in three different HEK293 cell lines, wild type, Gαq/11-knockout, and β-arrestin1/2-knockout cells. All three ligands induced high levels of Erk1/2 phosphorylation dose-dependently in wild-type HEK293 cells.
(§3) Fig. 5 Galr2 agonists display different Gαq-protein-dependent signaling and pErk1/2. The ability of increasing concentrations of agonists to induce a SRE-Luc activity and b total inositol phosphate production. c Representative western blot showing ligand-induced phosphorylation of Erk1/2 from wild-type (HEK293 WT), Gαq/11-, and β-arrestin1/2-knockout HEK293 cells expressing Galr2 (original blots are presented in Supplementary Figure 4). pErk1/2 and total Erk levels were determined at 5 min after stimulation of different concentrations of three ligands. Western blot band intensities corresponding to each concentration were quantified using Image studio ^TM Software. […] Data are the mean ± s.e.m. values of two independent experiments
as §1
One day before transfection, cells were seeded in 48-well plates at a density of 2.5 × 10^4 cells per well. A mixture containing 75 ng SRE-Luc reporter construct, 75 ng expression plasmid, and 0.3 μl Lipofectamine 2000 (Invitrogen) was prepared and added to each well, according to the manufacturer’s instructions. The cells were then maintained in serum-free DMEM for 16–18 h before exposure to the ligands. Approximately 48 h after transfection, the cells were treated with the respective ligands for 6 h. The cells were then lysed using 100 μl lysis buffer. The luciferase activity in 50 μl cell extract was determined using a luciferase assay system, following the standard protocol for the Synergy 2 Multi-Mode Microplate Reader Biotek.

Galr2 [3] = assay: Total inositol phosphate production; settings: for Log(τ/KA), Total inositol phosphate: HEK293 cells, human Galr2, 40 min at 37 °C, operational model (Eq. 2)
From the text: as §2, §3
Galr2 activation was monitored using measurement of total inositol phosphate (IP + IP2 + IP3) production in HEK293 cells expressing human Galr2. For this assay, cells were seeded in 12-well plates at a density of 2.5 × 10^5 cells per well. The next day, the cells were transiently transfected with 1 μg/well plasmid containing human Galr2, using the Lipofectamine 2000 (Invitrogen) transfection reagent. The day after transfection, the cells were incubated in M199 medium containing 1% FBS, 1% L-glutamine, 1% penicillin/streptomycin, and 1 μCi/well myo-^3H inositol for 20 h. After a 30-min incubation in buffer A (140 mM NaCl, 20 mM Hepes, 4 mM KCl, 8 mM D-glucose, 1 mM MgCl2, 1 mM CaCl2, 1 mg/ml free fatty acid bovine serum albumin, and 10 mM LiCl at pH 7.2), the cells were exposed to the agonist for 40 min at 37 °C. […] The radioactivity of the samples was measured using a TRI carb 3100TR liquid scintillation analyzer (Packard).

[4] = reference agonist Galanin, mean ± s.e.m. of three experiments in triplicate
[5] = mean ± s.e.m. of three experiments in triplicate
[6] = normalized to Galanin (reference agonist), in parenthesis, mean ± s.e.m. of three experiments in triplicate
[7] = HEK293 cells transiently expressing Galr2

Galanin [reference compound]
overall signaling at Galr2 (Galr2 [1]; G-protein and β-arrestin1/2): robust signaling toward G-protein and β-arrestin1/2 | ΔΔLog(τ/KA) (bias factor), Gαq-dependent-pErk1/2/β-arrestin1 (Galr2 [1]; [4]): 0.00 ± 0.22 | ΔΔLog(τ/KA) (bias factor), Gαq-dependent-pErk1/2/β-arrestin2 (Galr2 [1]; Gαq-dependent-pErk1/2 vs β-arrestin2, reference agonist Galanin, mean ± s.e.m. of three experiments in triplicate): 0.00 ± 0.04 | ΔΔLog(τ/KA) (bias factor), SRE-Luc/clathrin:β-arrestin2 (Galr2 [1]; [4]): 0.00 ± 0.17 | ΔΔLog(τ/KA) (bias factor), SRE-Luc/β-arrestin1 (Galr2 [1]; [4]): 0.00 ± 0.002 | ΔΔLog(τ/KA) (bias factor), SRE-Luc/β-arrestin2 (Galr2 [1]; [4]): 0.00 ± 0.02 | ΔΔLog(τ/KA) (bias factor), Total inositol phosphate/clathrin:β-arrestin2 (Galr2 [1]; [4]): 0.00 ± 0.19 | ΔΔLog(τ/KA) (bias factor), Total inositol phosphate/β-arrestin1 (Galr2 [1]; [4]): 0.00 ± 0.03 | ΔΔLog(τ/KA) (bias factor), Total inositol phosphate/β-arrestin2 (Galr2 [1]; [4]): 0.00 ± 0.05 | ΔΔLog(τ/KA) (bias factor), β-Arrestin-dependent-pErk1/2/β-arrestin2 (Galr2 [1]; [4]): 0.00 ± 0.38 | Log(τ/KA), SRE-Luc (Galr2 [2]; [5]): 4.80±0.007 | ΔLog(τ/KA), SRE-Luc (Galr2 [2]; [6]): 0.00 ± 0.007 | Log(τ/KA), Total inositol phosphate (Galr2 [3]; [5]): 4.20 ± 0.03 | ΔLog(τ/KA), Total inositol phosphate (Galr2 [3]; [6]): 0.00 ± 0.02

B1: Spexin (peptide, UniProt Q9BT56 27-116, looked up)
Spexin: APQRLLERRNWTPQAMLYLKGAQGRRFISDQSRRKDLSDRPLPERRSPNPQLLTIPEAATILLASLQKSPEDEEKNFDQTRFLEDSLLNW
modifications: Spexin
notes: endogenous peptide ligand of Galr2 and Galr3; synthesized by AnyGen
biased agonism, pErk1/2 vs β-arrestin isoforms (Galr2 [1]; Gαq-dependent pErk1/2 vs the two β-arrestin isoforms, relative to Galanin): biased signaling toward Gαq-dependent pErk1/2 over the two β-arrestin isoforms | ΔΔLog(τ/KA) (bias factor), Gαq-dependent-pErk1/2/β-arrestin1 (Galr2 [1]; [4]): 1.10 ± 0.29^b | ΔΔLog(τ/KA) (bias factor), SRE-Luc/clathrin:β-arrestin2 (Galr2 [1]; [4]): 1.88 ± 0.07^b | ΔΔLog(τ/KA) (bias factor), SRE-Luc/β-arrestin1 (Galr2 [1]; [4]): 0.63 ± 0.06^b | ΔΔLog(τ/KA) (bias factor), SRE-Luc/β-arrestin2 (Galr2 [1]; [4]): 0.77 ± 0.02^b | biased agonism, β-arrestin-dependent pErk1/2 vs β-arrestin2 recruitment (Galr2 [1]; relative to Galanin): biased agonism was also detected toward β-arrestin-dependent pErk1/2 over β-arrestin2 recruitment | biased agonism (Galr2 [1]; relative to Galanin, Gαq-protein-dependent signaling vs β-arrestins and β-arrestin2–clathrin): biased agonism toward Gαq-protein-dependent signaling over β-arrestins and β-arrestin2–clathrin interactions | ΔΔLog(τ/KA) (bias factor), Total inositol phosphate/clathrin:β-arrestin2 (Galr2 [1]; [4]): 1.84 ± 0.12^b | ΔΔLog(τ/KA) (bias factor), Total inositol phosphate/β-arrestin1 (Galr2 [1]; [4]): 0.60 ± 0.09^b | ΔΔLog(τ/KA) (bias factor), Total inositol phosphate/β-arrestin2 (Galr2 [1]; [4]): 0.73 ± 0.09^b | ΔΔLog(τ/KA) (bias factor), β-Arrestin-dependent-pErk1/2/β-arrestin2 (Galr2 [1]; [4]): 1.40 ± 0.16^a | efficacy in SRE-Luc assay (Galr2 [2]; [7]): substantially higher efficacy | Log(τ/KA), SRE-Luc (Galr2 [2]; [5]): 4.95±0.04 | efficacy in total inositol phosphate production (Galr2 [3]; [7]): substantially higher efficacy | Log(τ/KA), Total inositol phosphate (Galr2 [3]; [5]): 4.40 ± 0.03
